The target in this assay is mutant murine LIGHT (a.a. 79-82, EKLI, deleted), expressed on the cell surface (murine) (UniProt Q9QYH9). As to the kind of experiment: cell-based or functional assay.
Sequence of mutant murine LIGHT (a.a. 79-82, EKLI, deleted), expressed on the cell surface (murine) (Q9QYH9 other isoform, or with tags, fused parts or gaps mutant limits assumed): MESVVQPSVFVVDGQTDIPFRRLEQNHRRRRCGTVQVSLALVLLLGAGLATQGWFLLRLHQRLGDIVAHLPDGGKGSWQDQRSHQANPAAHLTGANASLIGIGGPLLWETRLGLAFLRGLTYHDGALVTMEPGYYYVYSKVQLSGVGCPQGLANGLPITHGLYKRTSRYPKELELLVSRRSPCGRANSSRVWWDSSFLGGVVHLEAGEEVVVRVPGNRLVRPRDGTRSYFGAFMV

Sequence of LTβR-human Ig (Fc fusion) (P50284 31-223): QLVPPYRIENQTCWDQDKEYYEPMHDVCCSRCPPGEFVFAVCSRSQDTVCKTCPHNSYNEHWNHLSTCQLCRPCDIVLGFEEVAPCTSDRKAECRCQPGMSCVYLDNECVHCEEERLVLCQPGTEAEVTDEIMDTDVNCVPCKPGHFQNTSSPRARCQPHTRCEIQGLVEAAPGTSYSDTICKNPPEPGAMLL

With LTβR-human Ig (Fc fusion), the Incidence of tumor growth (Percentage), 10^6 Ag104L^d-LIGHT^m in C3B6F1 mice treated with LTβR-Ig is 100 % (6/6 mice).

The values above are taken from patent US20090092640A1.
